We go through three substances from US20160251450A1.

Some results are limits rather than exact numbers.

The target of experiment [1] is Anti-OVA IgG (rabbit-derived). As to the kind of experiment: ELISA: OVA coated, rabbit Anti-OVA IgG, then wild-type pG sample (negative control), then HRP-labeled anti-guinea pig IgG, TMB. The signal needs a second free IgG-binding site. A general note: In an ELISA, binding on a coated surface is turned into a signal by an enzyme label.
In experiment [2] the target is Anti-OVA IgG (rabbit-derived). As to the kind of experiment: ELISA: OVA coated, rabbit Anti-OVA IgG, HRP-labeled anti-rabbit IgG. Signal against the no-antigen control.
Experiment [3] addresses Anti-OVA IgG (rabbit-derived). As to the kind of experiment: ELISA: OVA coated, rabbit Anti-OVA IgG, then HRP-labeled anti-rabbit IgG instead of the hybrid, TMB (sample No. 8).
Experiment [4] has as its target Anti-OVA IgG (rabbit-derived). In words: ELISA: OVA coated, rabbit Anti-OVA IgG, then K-tag pG alone (negative control), then HRP-labeled anti-guinea pig IgG, TMB. The signal needs a second free IgG-binding site.

In turn, “wild-type pG having no introduced K-tag (thrombin-treated K-tag pG)” registered a change in the absorbance at 370 nm (dO.D./min) in experiment [1] of under 0.03 dO.D./min.

Take “commercially available HRP-labeled anti-rabbit IgG (antibody)”: in experiment [2], the S/N ratio (No. 8 against No. 4 without antigen) is 4.6. In experiment [3], this substance had a change in the absorbance at 370 nm (dO.D./min) of 0.18 dO.D./min.

“recombinant protein G with K-tag (K-tag pG), alone, not cross-linked to polymer”: the change in the absorbance at 370 nm (dO.D./min) in experiment [4] was under 0.03 dO.D./min.
